Measured values: article PMC10404244

Experiments:
[1] = biological target: tyrosinated microtubules polymerized from purified porcine brain tubulin (porcine) (UniProt P02550); test: single-molecule TIRF microscopy (landing rate, processive motility); tyrosinated and detyrosinated microtubules held by biotin-streptavidin in the same chamber, motors at single-molecule concentrations, 2 mM ATP, HP assay buffer pH 7.0
[2] = biological target: tyrosinated microtubules polymerized from purified porcine brain tubulin (porcine) (UniProt P02550); test: TIRF microscopy microtubule-binding assay (mean fluorescence intensity); tyrosinated and detyrosinated microtubules held in the same chamber, 2 mM AMP-PNP, HP assay buffer pH 7.0
[3] = biological target: tyrosinated microtubules polymerized from purified porcine brain tubulin (porcine) (UniProt P02550); test: TIRF microscopy microtubule-binding assay (mean fluorescence intensity); tyrosinated and detyrosinated microtubules held in the same chamber, 2 mM ADP (Fig. 4C: 50 nM motor, 10 min), HP assay buffer pH 7.0
[4] = biological target: tyrosinated microtubules polymerized from purified porcine brain tubulin (porcine) (UniProt P02550); test: single-molecule TIRF microscopy (landing rate, dwell time); tyrosinated and detyrosinated microtubules held in the chamber, single molecules of motors, 2 mM ADP, HP assay buffer pH 7.0
[5] = biological target: detyrosinated microtubules: porcine brain tubulin treated with carboxypeptidase A (CPA) (porcine) (UniProt P02550); test: TIRF microscopy microtubule-binding assay (titration of fluorescence intensity); apparent; motor titrated 0.1–50 nM on held tyrosinated and detyrosinated microtubules, ADP; n = 160 MTs, N = 2
[6] = biological target: tyrosinated microtubules polymerized from purified porcine brain tubulin (porcine) (UniProt P02550); test: as above
[7] = biological target: detyrosinated microtubules: porcine brain tubulin treated with carboxypeptidase A (CPA) (porcine) (UniProt P02550); test: TIRF microscopy microtubule-binding assay (mean fluorescence intensity); tyrosinated and detyrosinated microtubules held in the same chamber, 2 mM ADP (Fig. 4C: 50 nM motor, 10 min), HP assay buffer pH 7.0

Chain of human KIF13B CAP-Gly fragment (a.a. 1685–1826), N-terminal sfGFP-StrepII (Q9NQT8 1685-1826): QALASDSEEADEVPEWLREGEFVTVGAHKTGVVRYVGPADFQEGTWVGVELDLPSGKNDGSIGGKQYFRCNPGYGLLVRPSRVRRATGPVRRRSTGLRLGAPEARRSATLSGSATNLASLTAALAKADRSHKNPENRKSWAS

full-length human KIF13B (wild type), C-terminal sfGFP-StrepII (from UniProt Q9NQT8 1-1826) (natural protein)
fold landing rate, tyrosinated over detyrosinated microtubules (ATP) [1]: 2 fold
fold binding (fluorescence intensity), tyrosinated over detyrosinated microtubules, AMP-PNP [2]: 1.4 fold
fold binding (fluorescence intensity), tyrosinated over detyrosinated microtubules, ADP [3]: 8 fold
fold dwell time, tyrosinated over detyrosinated microtubules (ADP) [4]: 1.3 fold
fold landing rate, tyrosinated over detyrosinated microtubules (ADP) [4]: 2 fold

full-length human KIF13B K414A, C-terminal sfGFP-StrepII (from UniProt Q9NQT8 1-1826) (natural protein)
fold landing rate, tyrosinated over detyrosinated microtubules (ATP) [1]: 2 fold
Kd [5]: 72.7 nM
Kd [6]: 23.7 nM
fold motor density on microtubules over KIF13B (50 nM, ADP) [7]: 11 fold
fold binding (fluorescence intensity), tyrosinated over detyrosinated microtubules, ADP [3]: 2 fold
fold motor density on microtubules over KIF13B (50 nM, ADP) [3]: 3 fold
fold dwell time, tyrosinated over detyrosinated microtubules (ADP) [4]: 1.5 fold
fold landing rate, tyrosinated over detyrosinated microtubules (ADP) [4]: 2 fold

full-length human KIF13B V178Q, C-terminal sfGFP-StrepII (from UniProt Q9NQT8 1-1826) (natural protein)
fold landing rate, tyrosinated over detyrosinated microtubules (ATP) [1]: 2 fold

human KIF13B CAP-Gly fragment (a.a. 1685–1826), N-terminal sfGFP-StrepII (from UniProt Q9NQT8 1685-1826) (domain or fragment)
fold landing rate, tyrosinated over detyrosinated microtubules (ADP) [4]: 14 fold
fold lower dwell time than full-length KIF13B or KIF13B^Δtail (tyrosinated microtubules, ADP) [4]: 2 to 3 fold
